Patent EP4574844A1 (Numab Therapeutics AG, dated 2025)

B1: PRO3744 (scFv)
scFv: DVQMTQSPSSLSASVGDRVTITCQASQSIGSNLAWYQQKPGKPPKLLIYKGGTLESGVPSRFSGSGSGTDFTLTISSLQPEDFATYYCQSTAGSSRSGNYGYVFGCGTKVTVLGGGGGSGGGGSGGGGSGGGGSQQLVESGGGLVQPGGSLRLSCAASGFSFTNNYYMCWVRQAPGKCLEWIACMLVGAWGNTYYASWANGRFTISKDNSKNTVYLQMNSLRAEDSAVYFCARARDYTWTLGGDPETSGFNLWGQGTLVKVSS
notes: anti-LILRB2 scFv; also called 68-18-E11-sc07
B2: PRO3851 (bispecific antibody, human IgG1, kappa, L234A L235A)
heavy 1: not shown
heavy 2: QVQLQESGGGLVQPGGSLRLSCAASAYTISRNSMGWFRQAPGKGLEGVAAIESDGSTSYSDSVKGRFTISLDNSKNTLYLEMNSLRAEDTAVYYCAAPKVGLGPRTALGHLAFMTLPALNYWGQGTLVTVSSGGGGSGGGGSGGGGSGGGGSQVQLQESGGGLVQPGGSLRLSCAASAYTISRNSMGWFRQAPGKGLEGVAAIESDGSTSYSDSVKGRFTISLDNSKNTLYLEMNSLRAEDTAVYYCAAPKVGLGPRTALGHLAFMTLPALNYWGQGTLVTVSSDKTHTCPPCPAPEAAGGPSVFLFPPKPKDTLMISRTPEVTCVVVDVSHEDPEVKFNWYVDGVEVHNAKTKPREEQYNSTYRVVSVLTVLHQDWLNGKEYKCKVSNKALPAPIEKTISKAKGQPREPQVCTLPPSRDELTKNQVSLSCAVKGFYPSDIAVEWESNGQPENNYKTTPPVLDSDGSFFLVSKLTVDKSRWQQGNVFSCSVMHEALHNHYTQKSLSLSPG
light: DIQMTQSPSSVSASVGDRVTITCRASQGISRWLAWYQQKPGKAPKLLIYAASSLQSGVPSRFSGSGSGTDFTLTISSLQPEDFATYYCQQTVSFPITFGGGTKVEIKRTVAAPSVFIFPPSDEQLKSGTASVVCLLNNFYPREAKVQWKVDNALQSGNSQESVTEQDSKDSTYSLSSTLTLSKADYEKHKVYACEVTHQGLSSPVTKSFNRGEC
B3: PRO4672 (antibody)
chain 1: DVQMTQSPSSLSASVGDRVTITCQASQSISSWVSWYQQKPGKPPKLLIYRGGYLESGVPSRFSASGSGTDFTLTISSLQPEDFATYYCQSTDSSTYGGAFGCGTKVTVLGGGGGSGGGGSGGGGSGGGGSQQVVESGGGLVQPGGSLRLSCAVSGIDLNSYAMTWVRQAPGKCLEWIGYIGSASSTYYASWASGRFTISKDNSKNTVYLQMNSLRAEDSAVYFCARGSTYINIWGQGTLVKVSSEPKSSDKTHTCPPCPAPELLGGPSVFLFPPKPKDTLMISRTPEVTCVVVDVSHEDPEVKFNWYVDGVEVHNAKTKPREEQYNSTYRVVSVLTVLHQDWLNGKEYKCKVSNKALPAPIEKTISKAKGQPREPQVYTLPPCREEMTKNQVSLSCAVKGFYPSDIAVEWESNGQPENNYKTTPPVLDSDGSFFLVSKLTVDKSRWQQGNVFSCSVMHEALHNHYTQKSLSLSPGKGGGGSGGGGSDVQMTQSPSSLSASVGDRVTITCQASQSIGSNLAWYQQKPGKPPKLLIYKGGTLESGVPSRFSGSGSGTDFTLTISSLQPEDFATYYCQSTAGSSRSGNYGYVFGCGTKVTVLGGGGGSGGGGSGGGGSGGGGSQQLVESGGGLVQPGGSLRLSCAASGFSFTNNYYMCWVRQAPGKCLEWIACMLVGAWGNTYYASWANGRFTISKDNSKNTVYLQMNSLRAEDSAVYFCARARDYTWTLGGDPETSGFNLWGQGTLVKVSS
chain 2: not shown
notes: trispecific anti-PDL1 x CD47 x LILRB2, (scFv)2-Fc-(scFv)2, 37-20-B03-based PDL1-BD
B4: PRO5052 (antibody)
chain 1: B3 chain 1
chain 2: not shown
notes: trispecific anti-PDL1 x CD47 x LILRB2, (scFv)2-Fc-(scFv)2; also called PRO4672 with 33-03-G02-based PDL1-BD
B5: PRO5055 (antibody, human IgG1, kappa)
chain: B3 chain 1
heavy: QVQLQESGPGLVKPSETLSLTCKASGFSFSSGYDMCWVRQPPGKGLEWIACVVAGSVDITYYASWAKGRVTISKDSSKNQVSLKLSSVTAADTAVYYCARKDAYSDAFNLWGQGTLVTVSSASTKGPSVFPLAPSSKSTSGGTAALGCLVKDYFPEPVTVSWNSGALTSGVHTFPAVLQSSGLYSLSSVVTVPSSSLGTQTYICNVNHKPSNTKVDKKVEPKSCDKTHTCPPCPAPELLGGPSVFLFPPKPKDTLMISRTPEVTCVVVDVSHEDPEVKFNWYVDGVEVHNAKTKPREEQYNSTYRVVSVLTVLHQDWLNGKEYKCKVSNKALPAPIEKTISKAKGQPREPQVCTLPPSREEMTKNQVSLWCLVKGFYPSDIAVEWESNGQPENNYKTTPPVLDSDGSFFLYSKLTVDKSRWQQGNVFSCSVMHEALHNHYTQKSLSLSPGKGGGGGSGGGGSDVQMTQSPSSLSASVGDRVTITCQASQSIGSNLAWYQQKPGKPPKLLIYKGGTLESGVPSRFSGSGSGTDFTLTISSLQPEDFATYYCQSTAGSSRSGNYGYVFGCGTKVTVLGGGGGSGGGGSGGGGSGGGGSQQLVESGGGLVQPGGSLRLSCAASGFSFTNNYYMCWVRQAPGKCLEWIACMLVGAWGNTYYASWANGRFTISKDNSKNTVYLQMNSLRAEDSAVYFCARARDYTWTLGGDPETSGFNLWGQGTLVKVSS
light: DIQMTQSPSSLSASVGDRVTITCQASQSINDYLAWYQQKPGKAPKLLIYKGGTLASGVPSRFSGSGSGTDFTLTISSLQPEDFATYYCQQGYIITDIDNVFGQGTKVEIKRTVAAPSVFIFPPSDEQLKSGTASVVCLLNNFYPREAKVQWKVDNALQSGNSQESVTEQDSKDSTYSLSSTLTLSKADYEKHKVYACEVTHQGLSSPVTKSFNRGEC
notes: trispecific anti-PDL1 x CD47 x LILRB2; PDL1-BD as Fab; also called PRO4687 with 33-03-G02-based PDL1-BD
B6: PRO3696 (scFv)
scFv: DVQMTQSPSSLSASVGDRVTITCQASQSIGLNLAWYQQKPGKPPKLLIYAGGYLASGVSSRFSGSGSGTDFTLTISSLQPEDFATYYCQSTYDGSSFVFAFGTGTKVTVLGGGGGSGGGGSGGGGSGGGGSQEQLVESGGGLVQPGGSLRLSCAASGFSFSSSSYMCWVRQAPGKGLEWIACMVTGSSDDTDYASWAKGRFTISKDNSKNTVYLQMNSLRAEDSAVYFCARAGSAPLWGQGTLVKVSS
notes: anti-LILRB2 scFv; also called 69-01-E02-sc06

What was measured:
[1] = molecular target: T1, human LILRB2 on the cell surface (human, UniProt Q8N423 22-597); assay: flow cytometry, CHO cells expressing LILRB2; competitor HLA-G tetramer; reference PRO2518
T1 construct: whole, on cells; also called CHO K1 cells expressing human LILRB2; LILRB2 on HMDMs

[2] = molecular target: T1, human LILRB2 on the cell surface; assay: flow cytometry, CHO cells expressing LILRB2; competitor HLA-A0301 dextramer
[3] = molecular target: T2, recombinant human LILRB2 (human, UniProt Q8N423 22-460, limits assumed); assay: SPR, LILRB2 immobilised, scFv as analyte
T2 construct: also called ILT4

[4] = molecular target: T1, human LILRB2 on the cell surface; assay: flow cytometry, CHO cells expressing LILRB2; competitor HLA-G tetramer
[5] = molecular target: T1, human LILRB2 on the cell surface; assay: flow cytometry, CHO K1 cells expressing human LILRB2
[6] = molecular target: T3, human CD47 on the cell surface (human, UniProt Q08722 19-323); assay: cell-based or functional assay
[7] = molecular target: T3, human CD47 on the cell surface; assay: cell-based or functional assay; remark: listed apart in the source
[8] = molecular target: T3, human CD47 on the cell surface; assay: cell-based or functional assay; remark: listed apart in the source
[9] = molecular target: T2, recombinant human LILRB2; assay: SPR, antibody captured by anti-framework IgG, antigen as analyte (without avidity)
[10] = molecular target: human PD-L1 on the cell surface (human, UniProt Q9NZQ7 19-290); assay: cell-based or functional assay
[11] = molecular target: T1, human LILRB2 on the cell surface; assay: cell-based or functional assay
[12] = molecular target: T4, recombinant human PDL1 (human, UniProt Q9NZQ7 19-238, limits assumed); assay: SPR, antigen immobilised, antibody as analyte
T4 construct: SPR antigen; also called CD274; B7-H1

[13] = molecular target: recombinant human CD47 (human, UniProt Q08722 19-139, limits assumed); assay: SPR, antigen immobilised, antibody as analyte
[14] = molecular target: T1, human LILRB2 on the cell surface; assay: cell-based or functional assay; remark: listed apart in the source
[15] = molecular target: T5, recombinant cynomolgus CD47 (cynomolgus monkey, UniProt A0A2K5X523 19-139); assay: SPR, antigen immobilised, antibody as analyte
T5 construct: also called cynom; CD47

[16] = molecular target: T6, recombinant cynomolgus PDL1 (cynomolgus monkey, UniProt G7PSE7 19-238); assay: SPR, antigen immobilised, antibody as analyte
T6 construct: also called cynom; PDL1
T6 sequence (G7PSE7 entry or part of it): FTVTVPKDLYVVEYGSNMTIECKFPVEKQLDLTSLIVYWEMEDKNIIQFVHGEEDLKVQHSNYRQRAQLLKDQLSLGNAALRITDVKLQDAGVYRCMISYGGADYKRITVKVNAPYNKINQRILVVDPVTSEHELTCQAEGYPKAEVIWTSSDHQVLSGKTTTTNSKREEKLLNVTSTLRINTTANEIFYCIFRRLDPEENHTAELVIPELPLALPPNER

T1 sequence (Q8N423 22-597): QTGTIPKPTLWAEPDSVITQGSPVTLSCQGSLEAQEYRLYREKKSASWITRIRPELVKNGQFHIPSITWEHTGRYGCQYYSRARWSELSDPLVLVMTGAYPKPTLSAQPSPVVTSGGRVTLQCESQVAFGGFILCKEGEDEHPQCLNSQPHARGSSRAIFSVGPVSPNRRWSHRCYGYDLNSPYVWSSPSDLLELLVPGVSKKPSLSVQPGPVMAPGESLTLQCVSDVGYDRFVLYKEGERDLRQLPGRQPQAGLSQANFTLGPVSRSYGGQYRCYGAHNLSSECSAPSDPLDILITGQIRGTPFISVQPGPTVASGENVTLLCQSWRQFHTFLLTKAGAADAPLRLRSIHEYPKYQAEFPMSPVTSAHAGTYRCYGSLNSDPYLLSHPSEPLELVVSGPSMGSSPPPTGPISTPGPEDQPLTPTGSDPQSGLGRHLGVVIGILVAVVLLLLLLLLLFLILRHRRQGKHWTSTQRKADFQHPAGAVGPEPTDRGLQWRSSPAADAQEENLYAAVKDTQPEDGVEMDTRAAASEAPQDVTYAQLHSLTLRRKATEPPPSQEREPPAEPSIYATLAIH
T2 sequence (Q8N423 22-460 limits assumed): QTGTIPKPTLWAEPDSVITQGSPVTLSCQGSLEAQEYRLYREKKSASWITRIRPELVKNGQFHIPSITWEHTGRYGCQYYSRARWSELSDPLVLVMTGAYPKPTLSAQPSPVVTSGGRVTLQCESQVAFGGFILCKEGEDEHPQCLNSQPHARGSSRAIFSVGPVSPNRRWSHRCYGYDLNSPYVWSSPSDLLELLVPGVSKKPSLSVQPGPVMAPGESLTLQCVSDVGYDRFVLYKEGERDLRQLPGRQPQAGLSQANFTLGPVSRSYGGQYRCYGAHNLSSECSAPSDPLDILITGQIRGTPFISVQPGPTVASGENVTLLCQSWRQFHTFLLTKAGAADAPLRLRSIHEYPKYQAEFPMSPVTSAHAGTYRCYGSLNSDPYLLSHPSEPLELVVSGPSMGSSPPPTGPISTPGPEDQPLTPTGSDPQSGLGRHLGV

| Binder | Rel. max. inhibition % (rel. to J-19) [1] | CD47 driven EC50 [nM], phagocytosis of H292 cells [6] | CD47 driven EC50 [nM], phagocytosis of RBCs [6] | CD47 driven EC50 [nM], phagocytosis of A375 cells [8] | Kd [9] | koff [9] | kon [9] | PD-L1 driven EC50 [nM], phagocytosis of H292 cells [10] | IL-1β EC50 [nM], LPS-driven cytokine secretion [11] | IL-6 EC50 [nM], LPS-driven cytokine secretion [11] | TNF-α EC50 [nM], LPS-driven cytokine secretion [11] | Kd [12] | koff [12] | kon [12] | Kd [13] | koff [13] | kon [13] | CD86 EC50 [nM], re-polarization of M2 macrophages [14] | CD163 EC50 [nM], re-polarization of M2 macrophages [14] | CD206 EC50 [nM], re-polarization of M2 macrophages [14] | other results |
| --- | --- | --- | --- | --- | --- | --- | --- | --- | --- | --- | --- | --- | --- | --- | --- | --- | --- | --- | --- | --- | --- |
| B1 | 99.1% | – | – | – | – | – | – | – | – | – | – | – | – | – | – | – | – | – | – | – | IC50 [2]: 0.893 nM; Kd [3]: 0.148 nM; koff [3]: 0.000114 s⁻¹; kon [3]: 771000 M⁻¹ s⁻¹; IC50 [4]: 0.973 nM; EC50 [5]: 0.881 nM |
| B2 | – | 1.82 nM | 3 nM | 0.9 nM | – | – | – | – | – | – | – | – | – | – | – | – | – | – | – | – | CD47 driven EC50 [nM], phagocytosis of Nalm6 cells [7]: 0.99 nM |
| B3 | – | 8.32 nM | 39.4 nM | – | 0.37 nM | 8.9e-05 s⁻¹ | 240000 M⁻¹ s⁻¹ | 0.32 nM | 0.096 nM | 0.078 nM | 0.123 nM | 0.12 nM | 0.000126 s⁻¹ | 1.05e+06 M⁻¹ s⁻¹ | 57.2 nM | 0.0256 s⁻¹ | 448000 M⁻¹ s⁻¹ | 0.079 nM | 0.067 nM | 0.12 nM | CD47 driven EC50 [nM], phagocytosis of Nalm6 cells [7]: 15.3 nM |
| B4 | – | 10.9 nM | 39.8 nM | 19.3 nM | 0.19 nM | 5.4e-05 s⁻¹ | 290000 M⁻¹ s⁻¹ | 0.2 nM | 0.082 nM | 0.077 nM | 0.117 nM | 0.013 nM | 2.9e-05 s⁻¹ | 2.3e+06 M⁻¹ s⁻¹ | 34 nM | 0.022 s⁻¹ | 660000 M⁻¹ s⁻¹ | 0.082 nM | 0.073 nM | 0.134 nM | Kd [15]: 32 nM; Kd [16]: 0.012 nM |
| B5 | – | 10.9 nM | 44.6 nM | 12.1 nM | 0.35 nM | 9.2e-05 s⁻¹ | 260000 M⁻¹ s⁻¹ | 0.19 nM | 0.0705 nM | 0.063 nM | 0.141 nM | 0.016 nM | 3.3e-05 s⁻¹ | 2.2e+06 M⁻¹ s⁻¹ | 21 nM | 0.011 s⁻¹ | 510000 M⁻¹ s⁻¹ | 0.085 nM | 0.058 nM | 0.128 nM | Kd [15]: 21 nM; Kd [16]: 0.0084 nM |
| B6 | 98.4% | – | – | – | – | – | – | – | – | – | – | – | – | – | – | – | – | – | – | – | IC50 [2]: 0.867 nM; Kd [3]: 0.226 nM; koff [3]: 0.000166 s⁻¹; kon [3]: 736000 M⁻¹ s⁻¹; IC50 [4]: 1.08 nM; EC50 [5]: 0.796 nM |
